Measurements as given in article PMC2138045.
Values joined by “and” are separate entries in the source; they are usually repeats but may differ in a detail not shown here. Equal values may be shown once.

Key:
[1] = molecular target: His-tagged kelch BTB domain (his:BTB) (Drosophila); assay: dynamic light scattering
[2] = molecular target: His-tagged kelch BTB domain (his:BTB) (Drosophila); assay: SEC
[3] = molecular target: His-tagged kelch BTBIVR (his:BTBIVR) (Drosophila); assay: SEC

| stoichiometry N [1] | stoichiometry N [2] | stoichiometry N [3] | Substance |
| --- | --- | --- | --- |
| 2 | 2 and 4 |  | His-tagged kelch BTB domain (his:BTB) (domain or fragment) |
|  |  | 2 | His-tagged kelch BTBIVR (his:BTBIVR) (domain or fragment) |
